Results taken from US20050255113A1, “Methods and compositions for inhibiting polypeptide accumulation associated with neurological disorders” (New York State Department of Health and Abgenix, Inc., priority 1999, published 2005).

What was measured:
GST-HD-25Q, GST-HD-42Q = test: Affinity purification of sFv with GST-fusion antigens (glutathione-Sepharose, SDS-PAGE, immunoblot); type: binding; details: 3 μg sFv with 4 μg antigen, 1 hr room temperature; Coomassie and immunoblot
Method: About 3 ug of N-HD-C4 sFv was mixed with 4 ug of either GST-DRPLA-Q35 or GST-HD-Q25 or GST-HD-Q42 in PBS (200 μl final volume) and rocked for 1 h at RT. Twenty microliters of glutathione Sepharose 4B beads (50% slurry, pre-washed with PBS) was added and incubated for another 30 min at RT to capture the sFv/GST fusion protein complexes. The beads were harvested by centrifugation at 12,000×g for 10 sec and washed thrice with 1 ml PBS. The complexes were eluted with 10 μl of 50 mM Tris pH 8.0 containing 10 mM reduced glutathione for 10 min at RT. Tubes were then centrifuged at 12,000×g for 1 min and the supernatants containing the soluble complexes were transferred to new tubes, mixed with an equal volume of 2× SDS-sample buffer and heated at 95° C. before being loaded on SDS-PAGE.
About 3 μg of each clone were incubated in solution for 1 hour at room temperature with 4 ug of either GST-DRPLA-Q35, GST-HD-Q25 or GST-HD-Q42. Then, a 10 μl bed volume of glutathione-Sepharose 4B (Pharmacia) was added to each tube to precipitate the GST-fusion protein/sFv complexes. After 30 min incubation, tubes were centrifuged and the pellets washed 3 times with 1 ml PBS. The complexes were eluted from glutathione-Sepharose beads by addition of 10 mM reduced glutathione to the pellets.
After centrifugation, supernatants containing the eluted complexes were transferred to new tubes and mixed with an equal volume of 2× SDS-loading buffer. The samples were boiled and the proteins separated on a 12% SDS-PAGE. Protein bands were visualized by Coomassie blue staining, and/or transferred to nitrocellulose membranes in order to detect the sFv molecules by immunoblot.
The binding specificities of the selected sFv clones were tested by affinity binding to a full range of antigens, as follows: (a) using sample numbers that correspond to the experimental results in FIGS. 9 and 10, about 3 μg of α-Nt-HD-C4 sFv clone 1 (lanes 2-4) or α-Nt-HD-C4 sFv clone 2 (lanes 5-7) were mixed with 4 μg of the following antigens and incubated in solution for 1 hr at room temperature (lanes 2 and 5) GST-DRPLA-35Q, (lanes 3 and 6) GST-HD-25Q, (4 and 7) GST-HD-42Q; (b) a 10 μl bed volume of glutathione-Sepharose 4B (Pharmacia) was added to each tube to bind all GST-containing protein complexes; the beads were washed with 10 mM glutathione solution, which eluted the GST-antigen or the sFv-antigen complex, and these eluates were analyzed by SDS-PAGE. Protein bands were visualized by Coomassie blue staining (FIG. 9) and were also transferred to nitrocellulose membranes in order to detect the sFv molecules by immunoblot blot (FIG. 10).

cerebellar slices = test: Aggregation of model huntingtin-GFP polypeptides in biolistically transfected cerebellar slices; type: cell-based, mice (P12 Balb); details: examined after 24 h
Method: Organotypic slice cultures are made from P12-P14 cerebellum, cerebral cortex, or striatum, using published methods with minor modifications (1)(14). The brain is dissected from a mouse and placed in a beaker of high magnesium (1.8 mM CaCl2 and 2.4 mM MgCl2) HEPES-buffered Hanks' saline (HBHS) at 4° C. The brain is then blocked and mounted next to a 2% agarose block on a 1-cm^2 piece of Plexiglas (0.3 cm thick) with SuperGlue®. Dental wax mounts the plastic onto the slicing-chamber tissue-holder. After being mounted, the tissue is placed in the slicing chamber of the vibratome. The bath of the vibratome contains cooled high magnesium HBHS at 4° C. Temperature is maintained by a peltier thermoelectric refrigeration system attached to the slicing chamber (FHC, Brunswick, Me.). Three or 400 μm thick sections were sliced from the tissues of interest. As each new slice was made it was placed into growth medium at 4° C. until the collection of slices was complete. Slices from one preparation were then placed in an enclosed filter unit, and incubated at 37° C. for 1 hour in high magnesium artificial cerebral spinal fluid ([…], 0.33 mM KCl, 0.12 mM NaH2PO4, 2.5 mM NaHCO3, 1 mM dextrose, 2.4 mM MgCl2, 1.8 mM CaCl2; all items from Sigma®, St. Louis, Mo.). Solutions were constantly gassed with 95% O2 and 5% CO2. […]

COS-7 cells = test: Aggregation and cell death of model huntingtin-GFP fusion polypeptides expressed in COS-7 cells; type: cell-based, Primate
From the text: In order to determine the effects of intracellular polypeptide aggregation, cells expressing a polypeptide representing normal huntingtin polypeptide as compared to cells expressing a huntingtin polypeptide representing the polypeptide found in patients with Huntington's disease was examined. Primate cells (COS-7) were transfected with plasmid constructs encoding a model huntingtin-GFP fusion polypeptide representing the normal polypeptide or an altered huntingtin polypeptide associated with disease having 47, 72, or 104 glutamine residues. Within 24 h of transfection, a large number of the cells express the huntingtin polypeptide as indicated by the GFP tag fused to each of the test proteins. Observations were recorded at three time points (see Table 4).
Using fluorescence microscopy, it was observed that cells that express the huntingtin-GFP polypeptide with 104 glutamine residues (FIG. 3D) harbor large, brilliant aggregates. […] In cells expressing a model huntingtin polypeptide with fewer glutamine residues (72Q), extremely bright and more variable aggregates are seen, with slightly less cell death. And in cells expressing a model huntingtin polypeptide with 47 glutamine residues, the fluorescence intensity was less and more diffuse.

[1] = test system: model huntingtin polypeptide (HD-25Q-GFP, pHD-104Q-GFP, HD-Q104-myc, GFP-HD-Q104); test: Intrabody retargeting of model huntingtin polypeptide in co-transfected COS-7 cells (immunofluorescence); type: cell-based
Method: COS 7 cells were grown on cover glass in 6-well plates (10^5 cells/well) and co-transfected at a ratio of 3:1 (sFv to target) with plasmids containing either N-HD-C4 sFv or a negative control sFv (containing an HA tag and SV40 nuclear localization sequence (NLS)) and plasmids containing GFP-targeted fusion proteins using 5 μl SuperFect transfection reagent (QIAGEN). At 24 hours post-transfection, cells were prepared for immunofluorescence as follows: cells were fixed with 4% paraformaldehyde and permeabilized with 0.2% triton-X100. To prevent non-specific binding of secondary antibodies, cells were blocked with 10% normal goat serum in 3% BSA.
The assay is designed such that both the target antigen, i.e., the model huntingtin polypeptide, and the intrabody can be visualized. In particular, the huntingtin polypeptide is visualized by detecting fluorescence emitted by the GFP domain of the huntingtin-GFP fusion polypeptide and the intrabodies tested are visualized using a rhodamine-conjugated antibody that can specifically bind to the intrabody.
The model HD target polypeptide was fused to c-myc (EQKLISEEDL (SEQ ID NO: 45)) epitope tag (HD-Q104-myc). The intrabodies sequences were fused to a HA tag and a SV40 nuclear localization signal (sFv-HA-NLS), so that bound antigens should be retargeted to the cell nuclei. At 48 hours post-transfection, cells were fixed and permeabilized. The HD-Q104-myc proteins were detectable using anti-myc epitope antibodies (i.e., MAb 9E10 IgG), followed by FITC-labeled goat anti-mouse IgG. The sFv-HA-NLS intrabodies were detected by polyclonal rabbit anti-HA IgG followed by rhodamine-conjugated goat anti-rabbit IgG antibodies.
FIGS. 13A-F show stably transfected COS-7 cells expressing α-Nt-HD-C4 sFv-HA-NLS which were further transfected with plasmids encoding either the model altered huntingtin polypeptide with 104 glutamine repeats (FIGS. 13B, D, F) or the model altered DRPLA polypeptide with 81 glutamine repeats (FIGS. 13A, C, E). Both model altered polypeptides were fused to GFP (GFP-HD-Q104 and GFP-DRPLA-Q81, respectively).

B1: α-Nt-HD-C4 sFv clone 1: subclone 1 of α-Nt-HD-C4 sFv expressed in bacteria and purified on Ni-NTA (protein)
scFv: QVQLQESGGGLVQPGGSLRLSCAASGFTFSSYSMSWVRQAPGKGLEWVAVISYDGSNKYYADSVKGRFTISRDNSKNTLYLQMNSLRAEDTAVYYCARDRYFDLWGRGTLVTVSSGGGGSGGGGSGGGGSQSALTQPASVSGSPGQSITISCTGTSSDIGAYNYVSWYQQYPGKAPKLLIYDVSNRPSGISNRFSGSKSGDTASLTISGLQAEDEADYYCSSFANSGPLFGGGTKVTVL
modifications: left off: small tags and cut ends
notes: subclone 1 of α-Nt-HD-C4 sFv expressed in bacteria and purified on Ni-NTA
sFv co-purified with antigens containing the Nt-HD sequence (GST-HD-25Q, GST-HD-42Q): binding only the HD flanking peptide

B2: α-Nt-HD-C4 sFv clone 2: subclone 2 of α-Nt-HD-C4 sFv expressed in bacteria and purified on Ni-NTA (protein)
scFv: B1 scFv
modifications: left off: small tags and cut ends
notes: subclone 2 of α-Nt-HD-C4 sFv expressed in bacteria and purified on Ni-NTA
sFv co-purified with antigens containing the Nt-HD sequence (GST-HD-25Q, GST-HD-42Q): binding only the HD flanking peptide

B3: 104Q: model huntingtin-GFP fusion polypeptide with 104 glutamine residues; SEQ ID NO: 14 (protein)
chain: MATLEKLMKAFESLKSFQQQQQQQQQQQQQQQQQQQQQQQQQQQQQQQQQQQQQQQQQQQQQQQQQQQQQQQQQQQQQQQQQQQQQQQQQQQQQQQQQQQQQQQQQQQQQQQQQQQQQQQQ
aggregates in brain tissue (cerebellar slices): large aggregates | fluorescence pattern / aggregation / cell death (COS-7 cells; 72 h after transfection): substantial death

B4: α-Nt-HD-C4 sFv-NLS: huntingtin-specific C4 sFv intrabody fused to HA tag and SV40 nuclear localization signal (protein)
scFv: QVQLQESGGGLVQPGGSLRLSCAASGFTFSSYSMSWVRQAPGKGLEWVAVISYDGSNKYYADSVKGRFTISRDNSKNTLYLQMNSLRAEDTAVYYCARDRYFDLWGRGTLVTVSSGGGGSGGGGSGGGGSQSALTQPASVSGSPGQSITISCTGTSSDIGAYNYVSWYQQYPGKAPKLLIYDVSNRPSGISNRFSGSKSGDTASLTISGLQAEDEADYYCSSFANSGPLFGGGTKVTVLYPYDVPDYATPPLLLRLV
relocation of HD-Q104-myc ([1]; COS-7, 48 hours post-transfection): able to relocate the model altered huntingtin polypeptide HD-Q104-myc from the cytosol to the nucleus | retargeting of HD-25Q-GFP ([1]; COS-7 co-transfection): can retarget the distribution of huntingtin polypeptide to the nucleus | colocalization with GFP-HD-Q104 in cell nuclei ([1]; COS-7 stably expressing the intrabody): clearly shows specificity to GFP-HD-Q104

B5: 47Q: model huntingtin-GFP fusion polypeptide with 47 glutamine residues; SEQ ID NO: 12 (protein)
chain: MATLEKLMKAFESLKSFQQQQQQQQQQQQQQQQQQQQQQQQQQQQQQQQQQQQQQQQQQQQQQQ
fluorescence pattern / aggregation / cell death (COS-7 cells; 24 h after transfection): diffuse, bright

B6: 72Q: model huntingtin-GFP fusion polypeptide with 72 glutamine residues; SEQ ID NO: 13 (protein)
chain: MATLEKLMKAFESLKSFQQQQQQQQQQQQQQQQQQQQQQQQQQQQQQQQQQQQQQQQQQQQQQQQQQQQQQQQQQQQQQQQQQQQQQQQ
aggregates in brain tissue (cerebellar slices): smaller, more discrete aggregates
